T1: human IL-18BP (human, UniProt O95998 31-194)
T1 construct: UniProt printed as 095998; also called hIL-18BP
T1 sequence: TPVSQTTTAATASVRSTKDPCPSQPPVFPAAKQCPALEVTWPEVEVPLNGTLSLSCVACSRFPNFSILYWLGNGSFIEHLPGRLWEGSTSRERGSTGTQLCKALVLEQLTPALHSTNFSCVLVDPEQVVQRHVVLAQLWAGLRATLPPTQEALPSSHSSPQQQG


Biological target: T1, human IL-18BP
Test: BLI, apparent KD

Binder | Kd
SA301a HC-G55R (antibody, name in Kabat numbering, V domains shown, IgG1 kappa) VH: QVQLQESGPGLVKPSQTLSLTCTVSGYSITSDYNSHWIRQPPGKGLEWIGYIHYSRSTNYNPSLKSRVTISRDTSKNQFSLKLSSVTAADTAVYYCARNYGSIYVNYFDYWGQGTLVTVSS VL: EIVLTQSPATLSLSPGERATLSCSASSSVSYMYWYQQKPGQAPRPLIYRTSNLASGIPARFSGSGSGTDFTLTISSLEPEDFAVYYCQQYHSYPTFGGGTKVEIK | 0.75 nM
SA301a HC-G55Y (antibody, name in Kabat numbering, V domains shown, IgG1 kappa) VH: QVQLQESGPGLVKPSQTLSLTCTVSGYSITSDYNSHWIRQPPGKGLEWIGYIHYSYSTNYNPSLKSRVTISRDTSKNQFSLKLSSVTAADTAVYYCARNYGSIYVNYFDYWGQGTLVTVSS VL: EIVLTQSPATLSLSPGERATLSCSASSSVSYMYWYQQKPGQAPRPLIYRTSNLASGIPARFSGSGSGTDFTLTISSLEPEDFAVYYCQQYHSYPTFGGGTKVEIK | 2.33 nM
SA301a HC-N58I (antibody, name in Kabat numbering, V domains shown, IgG1 kappa) VH: QVQLQESGPGLVKPSQTLSLTCTVSGYSITSDYNSHWIRQPPGKGLEWIGYIHYSGSTIYNPSLKSRVTISRDTSKNQFSLKLSSVTAADTAVYYCARNYGSIYVNYFDYWGQGTLVTVSS VL: EIVLTQSPATLSLSPGERATLSCSASSSVSYMYWYQQKPGQAPRPLIYRTSNLASGIPARFSGSGSGTDFTLTISSLEPEDFAVYYCQQYHSYPTFGGGTKVEIK | 0.27 nM
SA301a HC-N58K (antibody, name in Kabat numbering, V domains shown, IgG1 kappa) VH: QVQLQESGPGLVKPSQTLSLTCTVSGYSITSDYNSHWIRQPPGKGLEWIGYIHYSGSTKYNPSLKSRVTISRDTSKNQFSLKLSSVTAADTAVYYCARNYGSIYVNYFDYWGQGTLVTVSS VL: EIVLTQSPATLSLSPGERATLSCSASSSVSYMYWYQQKPGQAPRPLIYRTSNLASGIPARFSGSGSGTDFTLTISSLEPEDFAVYYCQQYHSYPTFGGGTKVEIK | 0.34 nM
SA301a HC-N58P (antibody, name in Kabat numbering, V domains shown, IgG1 kappa) VH: QVQLQESGPGLVKPSQTLSLTCTVSGYSITSDYNSHWIRQPPGKGLEWIGYIHYSGSTPYNPSLKSRVTISRDTSKNQFSLKLSSVTAADTAVYYCARNYGSIYVNYFDYWGQGTLVTVSS VL: EIVLTQSPATLSLSPGERATLSCSASSSVSYMYWYQQKPGQAPRPLIYRTSNLASGIPARFSGSGSGTDFTLTISSLEPEDFAVYYCQQYHSYPTFGGGTKVEIK | 0.41 nM
SA301a HC-N58G (antibody, name in Kabat numbering, V domains shown, IgG1 kappa) VH: QVQLQESGPGLVKPSQTLSLTCTVSGYSITSDYNSHWIRQPPGKGLEWIGYIHYSGSTGYNPSLKSRVTISRDTSKNQFSLKLSSVTAADTAVYYCARNYGSIYVNYFDYWGQGTLVTVSS VL: EIVLTQSPATLSLSPGERATLSCSASSSVSYMYWYQQKPGQAPRPLIYRTSNLASGIPARFSGSGSGTDFTLTISSLEPEDFAVYYCQQYHSYPTFGGGTKVEIK | 4.39 nM
SA301a HC-G55T (antibody, name in Kabat numbering, V domains shown, IgG1 kappa) VH: QVQLQESGPGLVKPSQTLSLTCTVSGYSITSDYNSHWIRQPPGKGLEWIGYIHYSTSTNYNPSLKSRVTISRDTSKNQFSLKLSSVTAADTAVYYCARNYGSIYVNYFDYWGQGTLVTVSS VL: EIVLTQSPATLSLSPGERATLSCSASSSVSYMYWYQQKPGQAPRPLIYRTSNLASGIPARFSGSGSGTDFTLTISSLEPEDFAVYYCQQYHSYPTFGGGTKVEIK | 1 nM
SA301a HC-N58Q (antibody, name in Kabat numbering, V domains shown, IgG1 kappa) VH: QVQLQESGPGLVKPSQTLSLTCTVSGYSITSDYNSHWIRQPPGKGLEWIGYIHYSGSTQYNPSLKSRVTISRDTSKNQFSLKLSSVTAADTAVYYCARNYGSIYVNYFDYWGQGTLVTVSS VL: EIVLTQSPATLSLSPGERATLSCSASSSVSYMYWYQQKPGQAPRPLIYRTSNLASGIPARFSGSGSGTDFTLTISSLEPEDFAVYYCQQYHSYPTFGGGTKVEIK | 0.62 nM
SA301a HC-N58R (antibody, name in Kabat numbering, V domains shown, IgG1 kappa) VH: QVQLQESGPGLVKPSQTLSLTCTVSGYSITSDYNSHWIRQPPGKGLEWIGYIHYSGSTRYNPSLKSRVTISRDTSKNQFSLKLSSVTAADTAVYYCARNYGSIYVNYFDYWGQGTLVTVSS VL: EIVLTQSPATLSLSPGERATLSCSASSSVSYMYWYQQKPGQAPRPLIYRTSNLASGIPARFSGSGSGTDFTLTISSLEPEDFAVYYCQQYHSYPTFGGGTKVEIK | 0.46 nM
SA301a HC-G55V (antibody, name in Kabat numbering, V domains shown, IgG1 kappa) VH: QVQLQESGPGLVKPSQTLSLTCTVSGYSITSDYNSHWIRQPPGKGLEWIGYIHYSVSTNYNPSLKSRVTISRDTSKNQFSLKLSSVTAADTAVYYCARNYGSIYVNYFDYWGQGTLVTVSS VL: EIVLTQSPATLSLSPGERATLSCSASSSVSYMYWYQQKPGQAPRPLIYRTSNLASGIPARFSGSGSGTDFTLTISSLEPEDFAVYYCQQYHSYPTFGGGTKVEIK | 0.44 nM
SA301a HC-N58A (antibody, name in Kabat numbering, V domains shown, IgG1 kappa) VH: QVQLQESGPGLVKPSQTLSLTCTVSGYSITSDYNSHWIRQPPGKGLEWIGYIHYSGSTAYNPSLKSRVTISRDTSKNQFSLKLSSVTAADTAVYYCARNYGSIYVNYFDYWGQGTLVTVSS VL: EIVLTQSPATLSLSPGERATLSCSASSSVSYMYWYQQKPGQAPRPLIYRTSNLASGIPARFSGSGSGTDFTLTISSLEPEDFAVYYCQQYHSYPTFGGGTKVEIK | 0.64 nM
SA301a HC-N58D (antibody, name in Kabat numbering, V domains shown, IgG1 kappa) VH: QVQLQESGPGLVKPSQTLSLTCTVSGYSITSDYNSHWIRQPPGKGLEWIGYIHYSGSTDYNPSLKSRVTISRDTSKNQFSLKLSSVTAADTAVYYCARNYGSIYVNYFDYWGQGTLVTVSS VL: EIVLTQSPATLSLSPGERATLSCSASSSVSYMYWYQQKPGQAPRPLIYRTSNLASGIPARFSGSGSGTDFTLTISSLEPEDFAVYYCQQYHSYPTFGGGTKVEIK | 4.51 nM
SA301a HC-N58M (antibody, name in Kabat numbering, V domains shown, IgG1 kappa) VH: QVQLQESGPGLVKPSQTLSLTCTVSGYSITSDYNSHWIRQPPGKGLEWIGYIHYSGSTMYNPSLKSRVTISRDTSKNQFSLKLSSVTAADTAVYYCARNYGSIYVNYFDYWGQGTLVTVSS VL: EIVLTQSPATLSLSPGERATLSCSASSSVSYMYWYQQKPGQAPRPLIYRTSNLASGIPARFSGSGSGTDFTLTISSLEPEDFAVYYCQQYHSYPTFGGGTKVEIK | 0.23 nM
SA301a HC-N58E (antibody, name in Kabat numbering, V domains shown, IgG1 kappa) VH: QVQLQESGPGLVKPSQTLSLTCTVSGYSITSDYNSHWIRQPPGKGLEWIGYIHYSGSTEYNPSLKSRVTISRDTSKNQFSLKLSSVTAADTAVYYCARNYGSIYVNYFDYWGQGTLVTVSS VL: EIVLTQSPATLSLSPGERATLSCSASSSVSYMYWYQQKPGQAPRPLIYRTSNLASGIPARFSGSGSGTDFTLTISSLEPEDFAVYYCQQYHSYPTFGGGTKVEIK | 2.5 nM
SA301a HC-N58H (antibody, name in Kabat numbering, V domains shown, IgG1 kappa) VH: QVQLQESGPGLVKPSQTLSLTCTVSGYSITSDYNSHWIRQPPGKGLEWIGYIHYSGSTHYNPSLKSRVTISRDTSKNQFSLKLSSVTAADTAVYYCARNYGSIYVNYFDYWGQGTLVTVSS VL: EIVLTQSPATLSLSPGERATLSCSASSSVSYMYWYQQKPGQAPRPLIYRTSNLASGIPARFSGSGSGTDFTLTISSLEPEDFAVYYCQQYHSYPTFGGGTKVEIK | 0.31 nM
SA301a HC-G55S (antibody, name in Kabat numbering, V domains shown, IgG1 kappa) VH: QVQLQESGPGLVKPSQTLSLTCTVSGYSITSDYNSHWIRQPPGKGLEWIGYIHYSSSTNYNPSLKSRVTISRDTSKNQFSLKLSSVTAADTAVYYCARNYGSIYVNYFDYWGQGTLVTVSS VL: EIVLTQSPATLSLSPGERATLSCSASSSVSYMYWYQQKPGQAPRPLIYRTSNLASGIPARFSGSGSGTDFTLTISSLEPEDFAVYYCQQYHSYPTFGGGTKVEIK | 0.51 nM

Reference: US20250368745A1 (published 2025)
